These results are taken from PMC8908386.

The target in this experiment is FLAG-MTA1^C (UniProt Q13330). Briefly: affinity purification with mass spectrometry.
UniProt Q13330, sequence (Q13330 449-715): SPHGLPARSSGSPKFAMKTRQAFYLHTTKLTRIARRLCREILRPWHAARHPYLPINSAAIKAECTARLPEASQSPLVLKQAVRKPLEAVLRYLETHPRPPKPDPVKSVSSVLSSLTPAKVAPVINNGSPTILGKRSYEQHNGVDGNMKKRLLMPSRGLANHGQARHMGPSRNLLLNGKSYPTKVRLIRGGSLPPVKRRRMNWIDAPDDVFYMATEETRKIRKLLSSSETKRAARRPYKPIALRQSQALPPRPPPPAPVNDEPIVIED

As to “HA-RBBP4 (from UniProt Q09028 1-425) (natural protein)”, the stoichiometry N (RBBP per MTA^C) is 2.5.
